The text below walks through data of US20250144214A1 (US Dept. of Health and Human Services, published 2025).

The term Kd denotes a measure of binding affinity in units of concentration.

Sequences and labels used below:
T1: glypican-2 (GPC2), as used in the binding affinity test (UniProt Q8N158 24-553, limits assumed)
T1 construct: It states neither the form of the antigen nor the assay
T1 sequence (looked up): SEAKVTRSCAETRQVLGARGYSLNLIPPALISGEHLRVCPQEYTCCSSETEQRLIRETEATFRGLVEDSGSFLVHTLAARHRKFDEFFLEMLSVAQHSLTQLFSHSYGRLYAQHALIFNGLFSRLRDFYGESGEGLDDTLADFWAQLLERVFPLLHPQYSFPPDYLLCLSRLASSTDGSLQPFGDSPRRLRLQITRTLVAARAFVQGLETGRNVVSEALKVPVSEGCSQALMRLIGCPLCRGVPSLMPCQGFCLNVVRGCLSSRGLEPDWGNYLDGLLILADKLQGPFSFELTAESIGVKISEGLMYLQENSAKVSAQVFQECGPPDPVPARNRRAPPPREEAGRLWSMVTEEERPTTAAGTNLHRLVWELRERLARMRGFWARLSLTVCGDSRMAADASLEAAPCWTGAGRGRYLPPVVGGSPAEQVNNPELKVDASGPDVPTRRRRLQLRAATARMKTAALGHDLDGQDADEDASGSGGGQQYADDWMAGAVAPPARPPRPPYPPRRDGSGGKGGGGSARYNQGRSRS

B1: hCT3-4 (humanized CT3 antibody) (antibody, V domains shown)
VH: QVQLVQSGAEVKKPGASVKVSCKASRFTFTDYNIHWVRQAPGQRLEWIGYINPNNGDIFYKQKFNGRVTITRDTSASTAYMELSSLRSEDTAVYYCVRSSNIRYTFDRFFDVWGQGTLVTVS
VL: EIVLTQSPATLSLSPGERATLSCRASSSVNYIYWYQQKPGQAPRLWIYYTSNLAPGIPARFSGSGSGTDFTLTISSLEPEDFAVYYCQQFSSSPSTFGQGTKLEIK
B2: hCT3-3 (humanized CT3 antibody) (antibody, V domains shown)
VH: B1 VH with R44G, R67K, V68A, I70M, R72V, A76T, A79V
VL: DIQMTQSPSSLSASVGDRVTITCRASSSVNYIYWYQQKSGKAPKLWIYYTSNLAPGVPSRFSGSGSGTDFTLTISSLQPEDFATYYCQQFSSSPSTFGQGTKLEIK
B3: hCT3-1 (humanized CT3 antibody) (antibody, V domains shown)
VH: QVQLVQSGAEVKKPGASVKVSCKASRFTFTDYNIHWVRQAPGQGLEWIGYINPNNGDIFYKQKFNGRVTLTADKSTSTAYMELSSLTSEDTAVYYCVRSSNIRYTFDRFFDVWGQGTLVTVSS
VL: DVVMTQSPLSLPVTPGEPASISCRASSSVNYIYWYLQKPGQSPQLWIYYTSNLAPGVPDRFSGSGSGTDFTLKISRVEAEDVGVYYCQQFSSSPSTFGQGTKLEIK
B4: hCT3-2 (humanized CT3 antibody) (antibody, V domains shown)
VH: B1 VH
VL: DVVMTQSPAFLSVTPGEKVTITCRASSSVNYIYWYQQKPDQAPKLWIYYTSNLAPGVPSRFSGSGSGTDFTFTISSLEAEDAATYYCQQFSSSPSTFGQGTKLEIK
B5: CT3 antibody (parental murine GPC2-specific monoclonal antibody) (antibody, V domains shown)
VH: EVQLQQSGPELVKPGASVKMSCKASRFTFTDYNIHWVKQSPGKTLEWIGYINPNNGDIFYKQKFNGKATLTINKSSNTAYMELRSLTSEDSAVYYCVRSSNIRYTFDRFFDVWGTGTTVTVSS
VL: ENVLTQSPAIMSASLGEKVTMSCRASSSVNYIYWYQQKSDASPKLWIYYTSNLAPGVPARFSGSGSGNSYSLTISSMEGEDAATYYCQQFSSSPSTFGTGTKLELK
notes: also called parental CT3 antibody; murine antibody CT3

Positions count from the first letter of the chain named.

One assay addresses T1, glypican-2 (GPC2), as used in the …. Nature of the assay: sensorgrams, Response (nm) against Time (unit inferred), traces at 200, 100 and 50 nM; instrument and immobilised partner not stated.
B1 registered a Kd of 3.3 nM. Same read-out and setting: the result for B2 reads 2.5 nM.

The target is the same in a further assay. Described as above. This is another data set of the same source.
On to B3, for which binding was put at a Kd of 4 nM.

B4 came in with a Kd of 3.6 nM.

Another assay shares this target. Nature of the assay: binding affinity for GPC2; method not stated (graphs in FIGS. 7A-7B).
Take B3: the binding affinity came to 4 nM. Still for that read-out and setting: the result for B4 reads 3.6 nM. With B1, the binding affinity came to 3.3 nM.

The molecule B2 yielded a binding affinity of 2.5 nM.

As to B5, the binding affinity stood at 2.2 nM.
